Source: patent US20230348630A1 (BEIJING MABWORKS BIOTECH, published 2023)
Where two headings read alike, the source gives them in different places.

T1: mouse BCMA on HEK293A/mouse BCMA cells (mouse, UniProt O88472 1-185)
T1 sequence: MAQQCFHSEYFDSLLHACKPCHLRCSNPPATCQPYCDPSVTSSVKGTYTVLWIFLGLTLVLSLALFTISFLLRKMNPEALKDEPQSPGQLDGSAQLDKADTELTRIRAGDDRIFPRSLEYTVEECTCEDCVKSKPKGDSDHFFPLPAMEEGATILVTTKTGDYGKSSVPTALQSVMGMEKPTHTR

T2: BCMA-his protein (Cat #: BCA-H522y, ACRO) (human, UniProt Q02223 1-54)
T2 construct: Bought recombinant protein; the construct is most likely only a soluble part of it; also called BCMA protein; human BCMA
T2 sequence: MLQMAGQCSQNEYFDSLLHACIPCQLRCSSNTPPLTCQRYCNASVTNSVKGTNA

T3: human BCMA on HEK293A/human BCMA cells (human, UniProt Q02223 1-184)
T3 sequence: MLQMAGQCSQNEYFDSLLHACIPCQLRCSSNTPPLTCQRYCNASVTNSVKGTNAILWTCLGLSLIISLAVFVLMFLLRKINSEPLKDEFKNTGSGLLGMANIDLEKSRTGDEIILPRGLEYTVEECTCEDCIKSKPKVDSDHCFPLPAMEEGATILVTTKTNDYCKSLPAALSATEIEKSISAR

T4: human TACI on HEK293A/human TACI cells (human, UniProt O14836 1-293)
T4 sequence: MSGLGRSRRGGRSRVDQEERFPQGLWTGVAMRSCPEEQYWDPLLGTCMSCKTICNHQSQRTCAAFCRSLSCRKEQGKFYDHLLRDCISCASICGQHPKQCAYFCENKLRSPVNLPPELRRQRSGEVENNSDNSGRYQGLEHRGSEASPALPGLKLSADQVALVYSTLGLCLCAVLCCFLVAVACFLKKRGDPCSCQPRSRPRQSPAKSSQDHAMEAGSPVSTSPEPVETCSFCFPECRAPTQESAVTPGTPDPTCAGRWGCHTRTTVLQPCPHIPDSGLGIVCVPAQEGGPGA

T5: human BAFFR on HEK293A/human BAFFR cells (human, UniProt Q96RJ3 1-184)
T5 sequence: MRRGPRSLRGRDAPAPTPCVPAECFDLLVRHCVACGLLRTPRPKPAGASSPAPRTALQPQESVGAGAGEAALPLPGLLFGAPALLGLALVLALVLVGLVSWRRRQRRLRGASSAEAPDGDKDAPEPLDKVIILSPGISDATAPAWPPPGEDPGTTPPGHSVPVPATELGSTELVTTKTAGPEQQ


Assays:
[1] = molecular target: T6, monkey BCMA on HEK293A/monkey BCMA cells (monkey, UniProt Q02223 1-184 (human entry)); experiment: flow cytometry on HEK293A/monkey BCMA cells
T6 sequence (Q02223 other isoform, or with tags, fused parts or gaps): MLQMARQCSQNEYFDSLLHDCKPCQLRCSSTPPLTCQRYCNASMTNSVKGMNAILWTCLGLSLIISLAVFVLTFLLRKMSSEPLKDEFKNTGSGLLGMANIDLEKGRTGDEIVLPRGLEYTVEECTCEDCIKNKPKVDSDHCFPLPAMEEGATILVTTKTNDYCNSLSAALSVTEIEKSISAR
Experimental: (§1) The anti-BCMA antibody's binding capability to cell surface BCMAs was tested by FACS. Briefly, HEK293A/human BCMA cells, HEK293A/monkey BCMA cells and HEK293A/mouse BCMA cells, as generated in Example 1, were collected, digested with trypsin, and subjected to centrifugation at 300 g for 5 min. The cells were suspended in PBS, and subjected to centrifugation again. The cells were re-suspended in PBS with 2% FBS at the cell density at 4×10⁶/ml, and 50 μl cells were seeded onto a U-bottom plate. […] The plate was washed with 2% FBS-PBS for three times, added with 50 μl PE-labeled goat-anti-human IgG (H+L) (1: 500), and incubated at room temperature for 45 min. The plate was washed with 2% FBS-PBS again for three times, and added with 150 μl 2% FBS-PBS to suspend the cells. The plate was measured for cell fluorescence using a cytometry, and the data was processed with FlowJo and analyzed with GraphPad.
(§2) Following the protocol of Example 6, the bispecific antibodies of the disclosure were tested for their binding capability to the HEK293A/human BCMA cells, HEK293A/monkey BCMA cells, and HEK293A/mouse BCMA cells as generated in Example 1.

[2] = molecular target: T1, mouse BCMA on HEK293A/mouse BCMA cells; experiment: flow cytometry on HEK293A/mouse BCMA cells [continued) F]
Experimental: as §1, §2

[3] = molecular target: T7, CD3D&E protein (Cat #: CT038-H2508H, Sino Biological) (human, UniProt P04234 22-105; P07766 23-126); experiment: SPR (BIAcore 8K), protocol of Example 10
T7 construct: Bought complex of the delta and epsilon chains; also called CD3D&E complex; human CD3D&E complex
T7 sequence (P04234 22-105, form in doubt, chain 1 of 2): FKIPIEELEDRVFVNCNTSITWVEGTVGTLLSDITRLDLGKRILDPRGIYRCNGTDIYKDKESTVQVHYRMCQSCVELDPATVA
T7 sequence (P07766 23-126, form in doubt, chain 2 of 2): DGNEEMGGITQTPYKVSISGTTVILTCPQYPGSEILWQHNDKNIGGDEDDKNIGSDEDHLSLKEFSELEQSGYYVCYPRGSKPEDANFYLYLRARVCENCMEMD
Experimental: Following the protocols in Example 5 and Example 10, the bispecific antibodies of the disclosure were tested for their binding affinity to CD3D&E and human BCMA.

[4] = molecular target: T2, BCMA-his protein (Cat #: BCA-H522y, …); experiment: ELISA, coated BCMA protein
Experimental: (§3) Briefly, an ELISA plate was coated with 100 μl 1 μg/ml BCMA protein (Cat #: BCA-H522y, ACRO) in PBS overnight at 4° C. Then, the plate was blocked with 250 μl PBST with 4% skimmed milk at room temperature for 1 h. […] The negative control well was added with PBST instead of the antibody. The plate was washed with PBST for three times, added with 100 μl HRP conjugated goat anti-human IgG (1:7000, Cat #: 31413, thermofisher), and incubated at room temperature for 1 h. The plate was washed again with PBST for four times, added with 100 μl freshly prepared TMB (Cat #: 555214, BD, USA), and left still for color development, which was terminated with 50 μl 10% H₂SO₄. The absorbance was read at 450 nm, and the data was processed and analyzed using GraphPad.
(§4) The purified bispecific antibodies were tested for their binding capability to recombinant human CD3 and human BCMA proteins by ELISA, following the protocols in Example 4 and Example 9.

[5] = molecular target: T3, human BCMA on HEK293A/human BCMA cells; experiment: flow cytometry on HEK293A/human BCMA cells
Experimental: as §1, §2

CD3 on Jurkat cells = molecular target: T8, CD3 on Jurkat cells (UniProt P04234 22-171; P07766 23-207); experiment: flow cytometry on Jurkat cells
T8 construct: whole, on cells
T8 sequence (P04234 22-171, chain 1 of 2): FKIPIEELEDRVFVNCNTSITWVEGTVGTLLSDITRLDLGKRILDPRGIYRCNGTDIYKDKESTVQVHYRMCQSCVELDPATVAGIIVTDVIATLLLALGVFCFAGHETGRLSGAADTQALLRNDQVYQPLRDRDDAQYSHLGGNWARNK
T8 sequence (P07766 23-207, chain 2 of 2): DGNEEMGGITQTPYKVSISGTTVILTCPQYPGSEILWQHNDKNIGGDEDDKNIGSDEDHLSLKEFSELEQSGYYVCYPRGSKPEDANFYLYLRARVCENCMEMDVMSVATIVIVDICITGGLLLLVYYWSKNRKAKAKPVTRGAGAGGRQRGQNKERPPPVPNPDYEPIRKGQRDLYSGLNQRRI
Experimental: Jurkat cells were collected, centrifuged at 300 g for 5 min, and suspended in PBS. After another centrifugation, the cells were suspended in 2% FBS-PBS at the cell density of 3×10⁶/ml, and […] were plated onto a U-bottom plate. The plate was added with 50 μl serially diluted anti-CD3 antibodies of the disclosure in 2% FBS-PBS (4-fold dilution, starting at 20 μg/ml), and incubated at room temperature for 1 h. The plate was washed with 2% FBS-PBS for three times, added with 50 μl PE-labeled goat-anti-human IgG (H+L) (1: 500), and incubated at room temperature for 45 min. The plate was washed with 2% FBS-PBS again for three times, and added with 150 μl 2% FBS-PBS to suspend the cells. The plate was measured for cell fluorescence using a cytometry, and the data was processed with FlowJo and analyzed with GraphPad.
Following the protocol of Example 11, the bispecific antibodies of the disclosure were tested for their binding capability to Jurkat cells.

[6] = molecular target: T7, CD3D&E protein (Cat #: CT038-H2508H, …); experiment: ELISA, coated CD3D&E
Experimental: as §4

[7] = molecular target: T6, monkey BCMA on HEK293A/monkey BCMA cells; experiment: flow cytometry on HEK293A/monkey BCMA cells; remark: listed apart in the source
Experimental: as §1

[8] = molecular target: T4, human TACI on HEK293A/human TACI cells; experiment: flow cytometry on HEK293A/human TACI cells
[9] = molecular target: T2, BCMA-his protein (Cat #: BCA-H522y, …); experiment: ELISA, coated BCMA protein; remark: listed apart in the source
Experimental: as §3

[10] = molecular target: T3, human BCMA on HEK293A/human BCMA cells; experiment: flow cytometry on HEK293A/human BCMA cells, without soluble BCMA
Experimental: Briefly, 10⁵ HEK293A/human BCMA cells in 100 μl culture medium were seeded on a 96-well plate, and the plate […] After 1-h incubation at 4° C., the plate was washed with PBS for three times, added with APC-goat-anti-mouse IgG (1:500 dilution, Cat #: 405308, BioLegend, US), inducted at 4° C. for 1 h, washed with PBS for three times, and measured for cell fluorescence using a FACS analyzer (BD).

[11] = molecular target: T2, BCMA-his protein (Cat #: BCA-H522y, …); experiment: SPR (BIAcore 8K), antibody captured by anti-human Fc, BCMA protein as analyte
Experimental: Briefly, the mouse anti-human Fc antibody (Cat #: BR100839, cytiva) was coupled to CMS biosensor chip. […] Chip regeneration was performed with 3 M MgCl₂.

[12] = molecular target: T3, human BCMA on HEK293A/human BCMA cells; experiment: flow cytometry on HEK293A/human BCMA cells in the presence of 1 µg/ml soluble human BCMA-his protein
Experimental: Briefly, 10⁵ HEK293A/human BCMA cells in 100 μl culture medium were seeded on a 96-well plate, and the plate was further added with 50 μl serially diluted antibody or PBS followed by the human BCMA-his proteins (Cat #: 10620-H08H, Sino Biological) at the final concentration of 1 μg/ml. After 1-h incubation at 4° C., the plate was washed with PBS for three times, added with APC-goat-anti-mouse IgG (1:500 dilution, Cat #: 405308, BioLegend, US), inducted at 4° C. for 1 h, washed with PBS for three times, and measured for cell fluorescence using a FACS analyzer (BD).

[13] = molecular target: T1, mouse BCMA on HEK293A/mouse BCMA cells; experiment: flow cytometry on HEK293A/mouse BCMA cells
Experimental: as §1

[14] = molecular target: T5, human BAFFR on HEK293A/human BAFFR cells; experiment: flow cytometry on HEK293A/human BAFFR cells
[15] = molecular target: T3, human BCMA on HEK293A/human BCMA cells; experiment: flow cytometry on HEK293A/human BCMA cells; remark: listed apart in the source
Experimental: as §1

Binder | EC50 [1] [µg/mL] | binding result [2] | Kd [3] [nM] | EC50 [4] [µg/mL] | EC50 [5] [µg/mL] | EC50 (CD3 on Jurkat cells) [µg/mL] | EC50 [6] [µg/mL] | EC50 [7] [µg/mL] | binding result [8] | EC50 [9] [µg/mL] | EC50 (read off the curve) [10] [µg/mL] | Kd [11] [nM] | EC50 (read off the curve) [12] [µg/mL] | binding result [13] | binding result [14] | EC50 [15] [µg/mL]
anti-CD3/BCMA bispecific antibody MBS305-L-KIH (bispecific antibody, human IgG1, kappa, L234A L235A, N297A) heavy 1: QVQLVQSGAEVKKPGASVKVSCKASGYTFTNHIIHWVRQAPGQGLEWMGYINPYPGYHGYNDKFSGRATMTSDTSTSTVYMELSSLRSEDTAVYYCARDGYYRDQDVLDYWGQGTLVTVSSASTKGPSVFPLAPSSKSTSGGTAALGCLVKDYFPEPVTVSWNSGALTSGVHTFPAVLQSSGLYSLSSVVTVPSSSLGTQTYICNVNHKPSNTKVDKKVEPKSCDKTHTCPPCPAPEAAGGPSVFLFPPKPKDTLMISRTPEVTCVVVDVSHEDPEVKFNWYVDGVEVHNAKTKPREEQYASTYRVVSVLTVLHQDWLNGKEYKCKVSNKALPAPIEKTISKAKGQPREPQVYTLPPSREEMTKNQVSLSCAVKGFYPSDIAVEWESNGQPENNYKTTPPVLDSDGSFFLVSKLTVDKSRWQQGNVFSCSVMHEALHNHYTQKSLSLSPGK light 1: not shown heavy 2: QVQLVQSGAEVKKPGASVKVSCKASGYTFTNHIIHWVRQAPGQGLEWMGYINPYPGYHGYNDKFSGRATMTSDTSTSTVYMELSSLRSEDTAVYYCARDGYYRDQDVLDYWGQGTLVTVSSGGGGSGGGGSGGGGSGGGGSDIQMTQSPSSLSASVGDRVTITCKASQDISQYLNWYQQKPGKAPKLLIYYTSGLHPGVPSRFSGSGSGTDFTFTISSLEPEDEATYYCQQGYALPWTFGQGTKLTAKRGGGGSGGGGSGGGGSEVQLVESGGGLVQPGRSLRLSCAASGFTFGDYAMHWVRQAPGKGLEWVSGISWNHGHIGYADSVKGRFTISRDNAKKSLYLQMNSLRAEDTALYYCAKDNSGYGHYYYGMDVWGQGTTVTVASASTKGPSVFPLAPSSKSTSGGTAALGCLVKDYFPEPVTVSWNSGALTSGVHTFPAVLQSSGLYSLSSVVTVPSSSLGTQTYICNVNHKPSNTKVDKKVEPKSCDKTHTCPPCPAPEAAGGPSVFLFPPKPKDTLMISRTPEVTCVVVDVSHEDPEVKFNWYVDGVEVHNAKTKPREEQYASTYRVVSVLTVLHQDWLNGKEYKCKVSNKALPAPIEKTISKAKGQPREPQVYTLPPSREEMTKNQVSLWCLVKGFYPSDIAVEWESNGQPENNYKTTPPVLDSDGSFFLYSKLTVDKSRWQQGNVFSCSVMHEALHNHYTQKSLSLSPGK light 2: not shown | 0.289 | no binding (tested: about 30000 ng/ml (LOG10 about 4.5)) | 675 | 0.0196 | 0.187 | 0.00301 | 0.267 | – | – | – | – | – | – | – | – | –
anti-BCMA antibody A6-3, full-length human IgG1/kappa (antibody, V domains shown, Expressed in HEK293F cells, purified on Protein A) VH: QVQLVQSGAEVKKPGASVKVSCKASGYTFTNHIIHWVRQAPGQGLEWMGYINPYPGYHGYNDKFSGRATMTSDTSTSTVYMELSSLRSEDTAVYYCARDGYYRDQDVLDYWGQGTLVTVSS VL: DIQMTQSPSSLSASVGDRVTITCKASQDISQYLNWYQQKPGKAPKLLIYYTSGLHPGVPSRFSGSGSGTDFTFTISSLEPEDIATYYCQQGYALPWTFGQGTKVEIKR | – | – | – | – | – | – | – | 0.0986 | no binding (tested: 100 µg/ml and 10 µg/ml) | 0.00733 | ~0.4 | 0.132 | ~1 | no binding | no binding (tested: 100 µg/ml and 10 µg/ml) | 0.0415
